The values below come from PMC5502743.

Like-named read-outs stand apart in the source and are kept apart here.

Experiment in all cases: single-molecule FRET imaging
The target in assay [1] is Cy3B*/Cy7*-labeled β2Δ6-148C/266C (full-length, minimal cysteine β2 adrenergic receptor mutant) (UniProt P07550).
Assay [2] has the same target. This is another data set of the same source.
Assay [3] shares this target. The source holds these as a separate data set.
For assay [4] the target is unchanged. The source holds these as a separate data set.
The target is the same in assay [5]. The source holds these as a separate data set.
For assay [6] the target is unchanged. The source holds these as a separate data set.

In the case of “Gs heterotrimer (Gαs, Gβ and Gγ) (from UniProt P63092 1-394; P62873 1-340; P59768 1-71) (complex)”, the k (high→low) (transition rate from high- to low-FRET states) was found to be 0.7 s⁻¹ in assay [1]; 0.6 s⁻¹ in assay [2]; 0.4 s⁻¹ in assay [3]; 0.7 s⁻¹ in assay [4]; 0.7 s⁻¹ in assay [5]; 1.1 s⁻¹ in assay [6]. The percent Gs coupling in assay [2] was in the range of 5 to 20%.
